Measurements reported in patent publication US20230190932A1 (Genentech, Inc., priority 2021, published 2023).
Entries after “also recorded” stand apart in the source; their conditions may differ.

Columns and labels:
CD4+ and CD8+ T-cell = settings: Haslett et al. 1998; Davies et al. 2001; cited from earlier work
[1] = Chen N et al. Clin Pharmacokinet. 2017; cited from earlier work
R/R NHL patients [2] = settings: in vivo
R/R NHL patients [3] = experiment: Related study with monotherapy mosunetuzumab (IV): safety summary
[4] = Study CO41942: mosunetuzumab pharmacokinetics in combination with lenalidomide vs popPK simulation of monotherapy (Study GO29781); assay type: in vivo, human; settings: 1/2/30 mg IV Q4W; N = 13; preliminary
[5] = system: patients with relapsed or refractory follicular lymphoma; settings: in vivo
Experimental: Patients with r/r FL after at least one prior systemic therapy are eligible to enter the study.
Lenalidomide 20 mg was the dose for all patients.

Nc1cccc2c1CN(C1CCC(=O)NC1=O)C2=O (racemic) [lenalidomide, (3RS)-3-(4-Amino-1-oxo-1,3-dihydro-2H-isoindol-2-yl)piperidine-2,6-dione]
immunomodulatory activity on T cells (CD4+ and CD8+ T-cell): enhance CD4+ and CD8+ T-cell co-stimulation, induce T-cell proliferation, and enhance IL-2 and IFN-γ | route of excretion [1]: primarily excreted in the urine

Mosunetuzumab: anti-CD20/anti-CD3 bispecific antibody, INN List 117, CAS Registry Number 1905409-39-3
AESI: Neutropenia/neutrophil count decrease (R/R NHL patients [2]): 56 (26.3) N (%) | AESI: ALT increased (R/R NHL patients [3]; N = 213): 22 (10.3) N (%) | AESI: AST increased (R/R NHL patients [3]; N = 213): 14 (6.6) N (%) | AESI: Febrile neutropenia (R/R NHL patients [3]; N = 213): 6 (2.8) N (%) | AESI: Thrombocytopenia (R/R NHL patients [3]; N = 213): 14 (6.6) N (%) | AESI: Tumor flare (R/R NHL patients [3]; N = 213): 4 (1.9) N (%) | AESI: Tumor lysis syndrome (R/R NHL patients [3]; N = 213): 3 (1.4) N (%) | AEs leading to dose modification/interruption (R/R NHL patients [3]; N = 213): 29 (13.6) N (%) | AEs leading to dose modification/interruption: Mosunetuzumab (R/R NHL patients [3]; N = 213): 29 (13.6) N (%) | AEs leading to treatment withdrawal (R/R NHL patients [3]; N = 213): 7 (3.3) N (%) | AEs leading to treatment withdrawal: Mosunetuzumab (R/R NHL patients [3]; N = 213): 7 (3.3) N (%) | Deaths (R/R NHL patients [3]; N = 213): 64 (30.0) N (%) | Grade 3-5 AEs (R/R NHL patients [3]; N = 213): 141 (66.2) N (%) | Patients who experienced at least one adverse event (AE) (R/R NHL patients [3]; N = 213): 207 (97.2) N (%) | Serious AEs (R/R NHL patients [3]; N = 213): 107 (50.2) N (%) | Total number of AEs (R/R NHL patients [3]; N = 213): 2258 | Treatment-related AEs (R/R NHL patients [3]; N = 213): 183 (85.9) N (%) | Treatment-related AEs: Mosunetuzumab (R/R NHL patients [3]; N = 213): 183 (85.9) N (%) | Fatal AEs (R/R NHL patients [3]; N = 213, does not include death due to progressive disease): 5 (2.3) N (%) | AESI: Cytokine release syndrome (R/R NHL patients [3]; per ASTCT criteria, N = 213): 79 (37.1) N (%) | mosunetuzumab PK in combination with lenalidomide compared with monotherapy [4]: similar; also recorded: consistent with what was expected | observed concentration measurements vs popPK model simulated 5th to 95th prediction intervals [4]: fell generally within | AESI by PT: Alanine aminotransferase increased [5]: 1 (6.3%) | AESI by PT: Aspartate aminotransferase increased [5]: 1 (6.3%) | AESI by PT: Cytokine release syndrome [5]: 5 (31.3%) | AESI by PT: Neutropenia [5]: 4 (25.0%) | AESI by PT: Pleural effusion [5]: 1 (6.3%) | AESI by PT: Thrombocytopenia [5]: 1 (6.3%) | AESI: Overall total number of events [5]: 20 | Blood and lymphatic system disorders: Total number of AESI events [5]: 10 | Blood and lymphatic system disorders: Total number of Grade 3-5 events [5]: 9 | Blood and lymphatic system disorders: patients with at least one AESI [5]: 4 (25.0%) | Blood and lymphatic system disorders: patients with at least one Grade 3-5 AE [5]: 4 (25.0%) | Grade 3-5 AE: Erythema (Skin and subcutaneous tissue disorders) [5]: 1 (6.3%) | Grade 3-5 AE: Erythema (listed under Investigations) [5]: 1 (6.3%) | Grade 3-5 AE: Neutropenia [5]: 4 (25.0%) | Grade 3-5 AE: Rash maculo-papular (Skin and subcutaneous tissue disorders) [5]: 1 (6.3%) | Grade 3-5 AE: Rash maculo-papular (listed under Investigations) [5]: 1 (6.3%) | Immune system disorders: Total number of AESI events [5]: 7 | Immune system disorders: patients with at least one AESI [5]: 5 (31.3%) | Investigations: Total number of AESI events [5]: 2 | Investigations: Total number of Grade 3-5 events [5]: 2 | Investigations: patients with at least one AESI [5]: 1 (6.3%) | Investigations: patients with at least one Grade 3-5 AE [5]: 1 (6.3%) | Respiratory, thoracic, and mediastinal disorders: Total number of AESI events [5]: 1 | Respiratory, thoracic, and mediastinal disorders: patients with at least one AESI [5]: 1 (6.3%) | Skin and subcutaneous tissue disorders: Total number of Grade 3-5 events [5]: 2 | Skin and subcutaneous tissue disorders: patients with at least one Grade 3-5 AE [5]: 2 (12.5%) | Total number of patients with at least one AESI [5]: 7 (43.8) % | Total number of patients with at least one Grade 3-5 AE [5]: 5 (31.3%)
